Laboratory results published in the DeepSol protein solubility set.

assay: soluble on expression in E. coli; label from the status in PepcDB or PDB records

| Sequence | soluble on expression in E. coli |
| --- | --- |
| MGSDKIHHHHHHMGQSEVNFYQQEVVELLKQVIEPNLKNDIVSLGMVRNLRIVDDYVYLRLYIGSHQQQLQTEVEAKLSALSWCKKTYIQICTIPGVKITLGISSGKGGVGKSTTAVNIAAALSLQGAKVGLLDADVYGPNVPQMLGLGQADVEVIQTPTGEKFLPLEVQGIKLMSVGLLAEENRPLAWRGPVLHKIITQFINDVEWGELDYLLIDLPPGTGDAQITIIQESPICGVILVTTPQQVAVADVRRNIYMFRQVGVPVLGIVENMSYLICGDCGSRTYIFGSGGGEQLATELQAPLLGQIPIDQRICSGGDSGNPIAISEQTSPASEVFRNIAIAIGLSFP | not soluble |
| MKETNGIPARLRQVAVIRDGPRQETVVLEADGMYYIKGETVYLQFAEENELGRVNNIVKIAPDEVTVLRSGAVEMRQTSRRRQETSGHYGTVFGRWALAAKTSSMEFHYDERRKKGRLFLSYELMLGDERSGRHTLTLTFKGV | not soluble |
| MENKYTHGVLFYHEHSGLKNINQGIGEVTTALSSICKHLSIQLSENEGDIIKYCQEIKTKNYAKDVDILFILGGDGTVNELINGVMTHDLQLPIGILPGGTFNDFTKTLNIAPNHKQASEQMISAQVGKYDVIKINNQYALNFVGLGLIVQNAENVQDGSKDIFGKLSYIGSTVKTLLNPTQFNYQLSIDDKTYSGETTMILTANGPFIGGSRIPLTDLSPQDGELNTFIFNEQSFSILNDIFKKRDSMNWNEITQGIEHIPGKKISLTTDPAMKVDIDGEISLETPIDIEVIPNAIQLLTVNDLLEHHHHHH | not soluble |
| QMCSSLMIIAFDFDGTLVDSYSCIEEAFYRALKRTYPWLPGKRYIAKLLTKLELQFERPKFGKHGRKIKPPMKIFQGKFARAWFEERAKLTKPLDGAREVLERLKEDGHIVISFSAEDFIPGIKEYRLKISGLYDLFDDVIIFGRDITICEAFSIVREKYGYDTFVWVDDKPWRFIGRGDENTEYVWMYFPYTARFVSDDILAQIPHLHVIYDLWSLLDVVKNLK | not soluble |
| MGSDKIHHHHHHMDKLDFRSQDFSQTGKAMYELACELFPIPRSITGQGFRDSLEILNKTLGGGILKFHSIKSGTKVFDWIVPDEWNVKEAYIITPKGEKICDFKKHNLHLLNYSEAIDQEIELEELQDHLYSIEEMPDAIPYVTSYYKRRWGFCLTHNERKKLKKGKYKVYIDAKHDENGVLDYADFILPSTQNSKDEILISTYLCHPSMANNELSGPVVSIFLAKWLLGLKERRYNYRFVIIPETIGSIVYLSKHLECLKKHVKAGFVLSCLGDDHTYSLIHTVKENTLSDKVALHTLKNKENFKAFSFLDRGSDERQYNAPLVNLGIVGVCRTRYGDYDGYHNSKDDLNFISEKGLMGGLQSMQEMILNLEINAVYENTIVCEPNLGKRGLYHTLSTTNDIPLACNFLAYCDGENDIIDIANILNMQAYEFKELLEKIKFYGLVK | not soluble |
| MTEHPRAHTAHLRTARLELTPLDPAADARHLHHAYGDEEVMRWWTRPACADPAETERYLTSCAAAPGARLWTIRAPDGTVPGMAGLLGGTDVPGLTWLLRRDSWGHGYATEAAAAVVGHALEDGGLDRVEAWIEAGNRRSLAVAARVGLTERARLAQHYPHRPGPHEMVVLGKARAEEPLTTLAVITELPVRDVAATLRLVEAALGARTAFAIGDPPEFAEAALTPWSAGPRFRLAAVPGPGPVEPVRLHLDAAGTADSLHRRAVDAGARVDGPPVRRPWGRSEFVITLPEGHELTVSAPV | soluble |
| MSKLASPQSVRALLERHGLFADKRFGQNFLVSEAHLRRIVEAARPFTGPVFEVGPGLGALTRALLEAGAEVTAIEKDLRLRPVLEETLSGLPVRLVFQDALLYPWEEVPQGSLLVANLPYHIATPLVTRLLKTGRFARLVFLVQKEVAERMTARPKTPAYGVLTLRVAHHAVAERLFDLPPGAFFPPPKVWSSLVRLTPTGALDDPGLFRLVEAAFGKRRKTLLNALAAAGYPKARVEEALRALGLPPRVRAEELDLEAFRRLREGLEGAV | soluble |
| MKTASYAQSFSRAAKEYDAYAYLQQTVARELASWIEGMECESILDLGCGTGALWRALRFKPRFFTGVDLSMEMLDLHPQDPAIRLIQSDFNHPSLYEHSYDLIAASSSLQWSRDLAQSFDLIAKSAQNVAFAIFTSESLWEIHDYVDSHSPIPSKERIESLLKERFAGEFELKRYPLSFPSRVAMLSYLKGSGISGGRRLGFAQSKKLIQSAPFERLTFEVLFFVGKPLKADQK | not soluble |
| MQIKILATSDMHGYIMPTSYSEKKMDLPFGTAKAATMLKKLRASAKGPVFQIENGDFIQGSPLSYYVRKAETHSVAAITKIINQMNYDVSILGNHEFNYGLDYLKETIASYQQPVLAANILGKDGQPYFGQPYVIIEKQGVKVAILGVTTQYIPHWEQPATVKDLTFKSVVETAAEYVPKLREEADLVVVAYHGGFEKDLETGEPTELLTGENEGYDLLEKVPGIDALVTGHQHREIATKLNGIPVIQPGFRGAFVGEITLEIEPMAKGYHVIGSDAAIHPVGNEQPDTEVLALTTALHDEVEEWLDQPVGNVEGDMTIQNPNAVRLKEHPYIEFINNVQMASSGTDISGTALFNNEGKGFNNQITMRDIITNYIYPNTLAVLRVTGQDLREALEQSATYFVLEKGQPIFNPKYVDPKPQYYNYDMYEGIEYTLDLRQPFGERVTKLNYHGKAVQAEDVLEIVTNQYRAVGGGNYQMFQPEKIIREIQIDMTELIAEYLKKHPIIQASTNDNFKVIW | not soluble |
| AERPTLPIPDLLTTDARNRIQLTIGAGQSTFGGKTATTWGYNGNLLGPAVKLQRGKAVTVDIYNQLTEETTLHWHGLEVPGEVDGGPQGIIPPGGKRSVTLNVDQPAATCWFHPHQHGKTGRQVAMGLAGLVVIEDDEILKLMLPKQWGIDDVPVIVQDKKFSADGQIDYQLDVMTAAVGWFGDTLLTNGAIYPQHAAPRGWLRLRLLNGCNARSLNFATSDNRPLYVIASDGGLLPEPVKVSELPVLMGERFEVLVEVNDNKPFDLVTLPVSQMGMAIAPFDKPHPVMRIQPIAISASGALPDTLSSLPALPSLEGLTVRKLQLSMDGGANKINGQAFDMNKPMFAAAKGQYERWVISGVGDMMLHPFHIHGTQFRILSENGKPPAAHRAGWKDTVKVEGNVSEVLVKFNHDAPKEHAYMAHCHLLEHEDTGMMLGFTVGHHHHH | soluble |
| MTPRIIVTDMDGTLLNSEHEIPARFWPLLDEMHEQGIVFAPASGRQLYTLLDQFAQAGKDLSVIAENGTVVYHEGEIISVTTIDPEVAHRVIRTMAHSDLDWGVVVCRVDGAFIARGDVEFLTETVRYYAKLDVVDDLHSVVNDQVIKLAIYSFPDAETVAAPALAESVGDHTLAISGAHWIDIMSPHANKGVALQQLADNLGVPIEHTAAFGDYLNDYELLHTAGTAYAMSNAHPDIKDIADHVVGSNDEESVLTTIHSLLTAAK | not soluble |
| MSLVIGYMESNKNNSKWKDILMDGEILQIENIFNGSHNKKNNGLIIFKIKDKLGNVNKLTFVSKSADMSIQVEKAERLIKKGSYYRHFKGNYYKVLYIAENSEDKEKVVVYQAMYGEKKVYVRPFKMFISKVDHCKYPEIEQEYRFMSISELENQFGTSVVASWNMQNIYVDHTIEGHHHHHH | not soluble |
| MGSDKIHHHHHHMIKNLSKAKSTSKTSSTTSETLTPANYYDRWTDQSFMSATWFKKFLACEAEALAELTGKWQPVRDAKALVVGNWLHSYFESKQAHEKFKDEHPESISKRGPTKGQLKSDFKVANAMIQSLTNDHDFNLLYQGDKEVIVTGEIGGYPWKGKIDCLNLKQGYFVDLKTTADIYKVYWNPETREKESFVYAYNYPLQMAVYQELIKQQFGVTCKPYIVAVSKQDPPDKQAIDLPEYRLTNAMNQVLESQQHLQDIIKGEADPIQCGHCAYCRSTKKLESVVSADDLLID | not soluble |
| MSKLFPGEVFANTADFDTGIRQLLPRYDEMLEVICRCLPLTSRRILDLGCGTGELSLKILQRCPDAQVIALDYSPRMLKFAQNKIVASGYKERWTGLQADFGDWAINPETLNIGNEFDACVSSLAIHHLYDEMKLQLFQRIAASLTPNGCFWNADPILPESPTLAEIYQAAREEWVSEQGSNFTEVRAKVGDSSPQGYSNPDQLATLDTHLQMLTKSGFTTVAVPWKYYGLAVFGGWVKLEHHHHHH | soluble |
| MATNLIGLDTTQSQKLANALNNLLANYQVFYMNTRGYHWNIQGKEFFELHAKFEEIYTDLQLKIDELAERILTLSARPMHSFSGYLKAAQIKEHTDSIDGRSSMQGLVDGFSILLHQQRDILELAGETGDEGTSALMSDYIREQEKLVWMLNAWLK | not soluble |
| NEYLNNVKSKYEVQKQRIQIQNDTRYMNEIEAHYNELRRFRHDYQNMLISIDEYLKTDDLEGLQEYYQKNLAPVSNRVLKEKYNLEDLSRVKVKSIKSILFSKLSYAQSQEIEVHFDLKEPLIDITVNELDLDIALGIMLDNAIEASVGHADGEIMSAIFIEKNSTVFLIQNNVFEQLPPLWKLKEAGYSTKGKNRGIGLNSLSKIVNRNENMILETRVLGAVFLQRLTVKRVSQND | not soluble |
| MSLCDQKNDTLQGKQNNMTAFIKKIAASKESEETQRYVGNLNGIEIKLTYYYKGDIVLRQISEHKLLYKTLKANNKEEAQKMLSQVGEAYQGMPGLTERIDYYDSYATEYVDINFTQAKISDLCKLPGSSIDNCSAYYLSMIRSQKLLEESGYHRINEGHHHHHH | soluble |
| MLSKPMELLRPSKGMINVHPIQRGGILTEEARKVLLEWGDGYSMCDICLEGRVDLLDKPPVKRFKEEVAEFLGMDEVRFTAGARHAKFVAMSGFKGALVVDSLAHYTTYIAAELNGLRVYEVPNTGYPEFRIEAESYTDVFEKVKEETGDYPAVALLTHADYKYGNLADAKKVAEICRDYGIPLILNTAYTSGIMEVSGRETGCDFIVASGHKSWAATAPIGILATTFEFAERVFRVSEVRGNWSGRAFTKKEVALFGCSPVYGLPLVTLMASFPVVKERVKRWKEEVEKARWFVEEMEKIEGVMLLGERPKNHTLMNFETPSFNLIAKKHRRKGYFLYHELKERGIFGVQPGMTRNVKLNVYGLSWEEVERVAEAFKEIAEKYGLEVED | not soluble |
| MKLDPQTLAHITSATLGNYNRVADDFREGTRDHDVSQNIDALLRHIEGSAPWQILDFGCGPGRDLKTFTAMGHVAVGLDGSERFAEMARAETGCEVFQQNFLELDLPQGRFDGIFANAVLFHIPRQELPRVLRELYATLKPGGVLFSSNPRGQNQEGWQGERYGAYHDLETWRQLLTDAGFAELEHYYRPAGLPRDQQPWLASVWRRLEHHHHHH | not soluble |
| MSLTITDWASTVNLNYDMSNKPVIAHVWKEQNANWLYGGWVCRSDRDENEGACDETKLPPGMLYGVTKIRLRFREQISHAETTLILDGQSGGFCLSTKISGGSVCKYLMQTCLSTFLQKSLRRYQKLAYGRLRWPWMEGHHHHHH | not soluble |
| MRKYAAIALCTSAILAGCNTSNVSQEPKKEKKVQEVAIQKEALQEQGKISYTPITHESTNTSIHITDLKDSLNEVQYKIWRTADGKERAKSFSSKEKEKQFTIPFDIKEFEGKRGEFQIEATGMKEDGKTIPLTKSIITFEQKVPVLMYHAIDDYHGQGIKDLFVSPANFEAQMKHLKDNGYTLLTFERWGDINKVNKPIFVTFDDGMKNNMNAFRVLQKLKDDTFKPAATEYMIVDNVDVEGALSTSEIKEMVDSGIFSVQSHTATHADLPKITNYEEELKGSKEKLEKITGKPVIAIAYPFGHVDDKVVTETKKYYQFATTTKPGQFITKGEPDELLKMKRVRIHHTTTVEQFASSIK | not soluble |
